# Laboratory results reported in the DeepSol protein solubility set.
# Test: soluble on expression in E. coli; label from the status in PepcDB or PDB records
row,Sequence,soluble on expression in E. coli
1,MMPPLTKIEVLAKRVMEGAQLKTHKYFRIAVPHAITGQQLIALVLERGAPDDEAEASHLASLLLHHGYMFPVIEHGQPFKDDGTLYRLQRPYFWPSQAELVPDVEYAIYLNKRLLRNEQKHGLEEDEVESFNRLADVLAHMWAFIVQQSELQLKQQKEKKKVDKVVFDSEERAFWKIRKPSRGGPNFLEDPYMKIEKKIRRQNAQGYRCLMDRLRFAIKTKPWLKALKASDTMVTWVDQRAEFDPFLHPPQPSNPWISDEASFWNQPTDTSSAEIPTEKRVKRWGLSVQELVKDPIGRQVLETFLESEFSSENIRFWIAIQDLKYAPNEQIYQKAERIREEFLAQGAPAQVNVDNRTLDQTLECISKAKDASQMRFAFYHSEEHVFTLMAKDSYPRFVRSQIYKAVLTAAQQHGTKRLGWRNFVFNMGTTKKPATSKPAKPQDSIGTGQVLPKQLSSDSLPVRQAHGVKPDPE,not soluble
2,AQLQNLVLKDREATPNDHTFVPRDIRDNVGEVVESTGVPIGESRFTISLRKTSNGRYKSTLKLVVPVVQSQTVNGIVTPVVVRTSYVTVDFDYDARSTTKERNNFVGMIADALKADKMLVHDTIVNLQGVY,soluble
3,ATTLYLTRHGETKWNVERRMQGWQDSPLTEKGRQDAMRLGKRLEAVELAAIYTSTSGRALETAEIVRGGRLIPIYQDERLREIHLGDWEGKTHDEIRQMDPIAFDHFWQAPHLYAPQRGERFCDVQQRALEAVQSIVDRHEGETVLIVTHGVVLKTLMAAFKDTPLDHLWSPPYMYGTSVTIIEVDGGTFHVAVEGDVSHIEEVKEV,soluble
4,MDHRSSSPFLQILPPDEVEKLLHSMKQAKEELETLGNGDESLFLCPQKITHCSTVSWKPNNVLAPALPKQNALNFNGNEQLSHENEAHSEIPSLLTFQEKGEEDTVEVTRDNYNEIDTVEDFRSIEPALENSPKILVDDSMEATQTFIEETNDFQNDTVHSLDGTLEIENRRLCLLGMLVEMKEICKSVKVDLLLNLIPDLAPVAVQACNSASSLSRKEAIYCLVYMVKQVGAEEMEKYLEPLTTAKRTLLQIYIDRSSKDDSK,not soluble
5,MGSDKIHHHHHHMGEELPVSQPVDQRPLEHQDHCQAAEPAAMDPPAGEDFYEKDFITYLSDENEQEISRAFIVANPGMVKFHFVDKVYEQLALKDKQVDTAIYSEVLPDPPLSQAIKIAKQMKKFAPDTIIAIGGGSALDVSKIARYIYEYSLDQEDGWLDIYDNVSELIKELQQKFVDIRKRIVKFKHETRTSLVMTRSLKAPS,not soluble
6,METKKIAGVLVTMVAPFENHMANGGEKLFGNASSIKRRPDGRVYVSGQMQRHVLFSAIDRLNHLDKAKGTTFVSNGDGITNLIEIDLRADLGGFMHTNKGDYSDRRIAPLSVTPATALDTSSVGRDLLVRIRFDKSSDAKNQALATREYSEQDKMNMNFFLDITSVGVSKSFVYKDGLNLGTKYFKHITDDEKKRRVKLFLEATRIMNDYANQARNAVCGEPEKVLIVFDDRLSRKACRYYTVGEKEQANIIKELDQYQVKYFVGDDASDYSVADAYRDAMNYLDKATLVDFAEGEEIMTFAEAFECKEKEPQEKKSKKGKDKATSAQNLFAEQQDDQ,not soluble
7,QFLSGQLSIKLWFDKVGHQLIVTILGAKDLPSREDGRPRNPYVKIYFLPDRSDKNKRRTKTVKKTLEPKWNQTFIYSPVHRREFRERMLEITLWDQARVREEESEFLGEILIELETALLDDEPHWYKLQ,soluble
8,MEVLGITEKALNYYRENVKDNKTITPDQALLKMIRNVLLVKETHPERVKKRLFCTEYAYGNMIIKVNRKKQVFEIVNKSGCFSDQNDWKFPKRRYIELSKELGIKDCKFRKITYSKKNHNKQKLEHHHHHH,soluble
9,ASMTGGQQMGRILVAVLISGTGSNLQALIDSTREPNSSAQIDIVISNKAAVAGLDKAERAGIPTRVINHKLYKNRVEFDSAIDLVLEEFSIDIVCLAGFMRILSGPFVQKWNGKMLNIHPSLLPSFKGSNAHEQALETGVTVTGCTVHFVAEDVDAGQIILQEAVPVKRGDTVATLSERVKLAEHKIFPAALQLVASGTVQLGENGKICWVKEEPLEHHHHHH,soluble
10,MSSIGKEDIYESDGAASQVQKSEPENDNPTHPDIELISVDVDEALKKYKNRVLNLTSSDFSDSIAKKRRHAFGNNQYVLEVTGAGFSGTETAAEKLNRILYEVADLNEQIRADENLKTDLLNAEVLENLEKEVKTLQVAQSNGKTARVEHDVELPNVRTDSKVATLENRLRRIEQVIGSSVIPSAPVLDTIEDLKLRCETLNHSYVSGLEQRLNMMLTKLEKIDETRANNDIDENLDKKVDEILELMQKWDVACSSLPSNVNKVKALNRLHEQVQHFAGGLSHLKTIREKLEKEVAQGREAIIEYESQGKQEIGSVVEKLKLLEAKVADLK,not soluble
11,MAHHHHHHMRNSLRLRLSSTSSSLLRSTFWLRQCGSGGCGFSGGPGGYPTDADALAKILTQAKKGSFNGSSSSPSDFFDGRFVGGSPTMDPAMLQDMHQKLNQSLTPEVRESMKAMMESIQRGDGMPQMGMMAFGVGENEKGKKVARGAKLMFDPSTGKLSKDFVEKQLEDDDPVLPKETVGDYNTEGAIEVEFEEDARKEASVRENIPEAEVIVEEVPREK,not soluble
12,KNVLILGAGGQIARHVINQLADKQTIKQTLFARQPAKIHKPYPTNSKIIMGDVLNHAALKQAMQGQDVVYANLTGEDLDIQANSVIAAMKACDVKRLIFVLSLGIYNEVPGKFGEWNNAVIGEPLKPFRRAADAIEASGLEYTILRPAWLTDEDIIDYELTSRNEPFKGTIVSRKSVAALITDIINKPEKHIGENIGINQPGTDG,not soluble
13,MLIWSPSVRIAANIRTDNPNSLKRNANMPQLTLDKTDIKILQVLQENGRLTNVELSERVALSPSPCLRRLKQLEDAGIVRQYAALLSPESVNLGLQAFIRVSIRKAKDAREDFAASVRKWPEVLSCFALTGETDYLLQAFFTDMNAFSHFVLDTLLSHHGVQDAQSSFVLKEIKHTTSLPLNHLLKE,not soluble
14,MNTLPDTHVREASGCPSPITIWQTLLTRLLDQHYGLTLNDTPFADERVIEQHIEAGISLCDAVNFLVEKYALVRTDQPGFSAGAPSQLINSIDILRARRATGLMTRDNYRTVNNITRGKHPEAKQ,not soluble
15,MLIKVKTLTGKEIELDIEPNDRVERIKEKVEEKEGIPPPQQRLIFAGKQMNDDKTAADYKVLGGSVLHLVLALRGGF,not soluble
16,MLKIIPGATGYFNKTLNSNQFDNEDAIKDKLDNRGSIKGKLNNIYGKSIDYAALRHRDIIIAKIDLFIQRITHNLWHARKKMCFLEHHHHHH,not soluble
17,MPATPVPPVTMPPVPPVGFPPVTAPPGLHPPPPVPPVPVPTLPVTSEHKTAHDACIKRLEQLEIPPDPKIYPSPTEPGTFGSVTEVLTNVFGVEVHKTSNFYQYSVHITAELSSKKEVTFTKKGKEDFIVHDRHEKCSAILFHALNRFEDFFKSSENCIIYDGQSILFTSMNLFEGIPTGKIKTKVFQINGADTNLKDLMVLPCIKLEVFPTKNPVVNFSLEDIGRRTSDSNIESVNMAYKQILDLAMSQYAIRETSKCVVFEHGKMFFINPLQEGYAPCDIVEVGDGKQMKPGLKKTLQFIEGPYGRNQNNPSIVIDGMKVAFHMEQLVFQKLSSITSNLANGITGSERERCAAVIKGLDCHSNYRGRTRHHKIESIHHEGAATARFELEGGGTCTVATYFKDKYKIQLRYPNANLIVCKERGALNFYPMELITISPNQRVRITQQTSSQSQRTTKESAVLPDIRQRLIMTGKIAAKITAENEVLGKMGVTVCDEPLVVKGRNLPAIRLASFETGEHLINPRDCKWRPQRYNRSAVAPKVWALYGVGSPGSQMNRDVMRRFCDEFMNMSRSKGILFPPPGDVNLLTPDAIENRLREAANAGCTFVLCITEDNITCLHQKYKFIEHHTQMIVQDMKLSKALSVVNASKKLTLENVINKTNVKLGGSNYVYLDTKNFLQEHLIIGVGISSPPPGTKYIMESRGILNPTIVGFAYNGNGKQEFSGDFVLNAAGQETIAPIEDIVSYSIKGYKKFHDGKAPKRITIYRSGSSEGNHGPIISYEVPLARVAMRNFSPDTQLLYIVVSKEHTYRFFKKESGGSSSGGSNSAGASNSGTLTSAPPKPWELNIGPGLTVDYGVTNPACKQFFLNSHMTLQGSAKTPLYTVLADDRNIGMSALEEFTFNLCHLHQIVGLPTSIPTPLYVANEYAKRGRNLWNEAINANEIPEVTGPESARLKKMTDGISYMGSGDMIDRRVNA,not soluble
18,YVLAVTACPTGIAHTYMARDALKKQAEKMNIKIKVETNGSSGIKNHLTEQDIERATGIIVAADVHVETDRFDGKNVVEVPVADGIKRPEELINTALDTNRKPF,not soluble
19,VGSIQPDFLGSVNSSLRYKNWTLRASMDMRFGGMVAIYGSHYGTAYGYLKSSMNGVDAENGGITYTSIWDGLTYDDGIIPEAIMPGGQTINTPSGTYTIAEGGELYADLVNRGIVDPQHASSWNYWNNSWGRAAVWKNNDWFHELNYIALREVSLSYRMPGKIADKIGASGINLTLTGRNLGYLLNSLPNNFNPESLRGTQAGQFMIRSVSPYTASYTFTINATF,not soluble
20,MEFKDFPLKPEILEALHGRGLTTPTPIQAAALPLALEGKDLIGQARTGTGKTLAFALPIAERLAPSQERGRKPRALVLTPTRELALQVASELTAVAPHLKVVAVYGGTGYGKQKEALLRGADAVVATPGRALDYLRQGVLDLSRVEVAVLDEADEMLSMGFEEEVEALLSATPPSRQTLLFSATLPSWAKRLAERYMKNPVLINVIK,soluble
21,MSFLQHYKSGNLVLPSALLFHYKDIFSNADDFLVWQFFYFQNTTKMEDIATSQIATAIGKTVPEVNRSVSNLISQELLDMKTIELDGESEVLFDATLALKKLDDLLTAADETTVSSSKGISNALKDLVEDFERELGRMLSPFELEDLQKTVSDDKTDPDLVRSALREAVFNGKTNWNYIQAILRNWRHEGISTLRQVEERRKEREQANPANVTVSDDFLSAMNLWSDSDAR,not soluble
22,MTFYFYFVINMEKVAIYIIGDIVLAENTGKALKKWRNLFNIQQIELAKYLNVSPSVISDYEVGRRKNPGVNIIKKYVLALIEIDKEKGGQTIKALKRILDKSPSMKAILSIKEYENPITLNEFVNIIDGEIAVGDNSDTPIYGHTVVDSIKAILEMTGDDFYHLYGWTTERALIFTNVSTGRSPMVAVRVSIMKPRVVVLQGINKDKIDSLALKLAEIDNIPLITTHLDTKELIKRLNEIK,not soluble
23,MGKKPVVIGVAGGSGSGKTSVARAIYDHFGDHSILVLEQDFYYKDQSHLPFEERLKTNYDHPLAFDNDLLIEHIHKLLRYEPIDKPVYDYTLHTRSSDVIRVEPKDVIIVEGILVLEDERLRNLMDIKVYVDTDPDIRIIRRLIRDMKERGRTFDSVIEQYLSVVRPMHNQFVEPTKRYADVIIPEGGQNVVAIDLMVAKIRTVLEQKAVL,not soluble
24,GEPPTQKPKKIVNAKKDVVNTKMFEELKSRLDTLSQEVALLKEQQALQTVCLKGTKVHMKCFLAFTQTKTFHEASEDCISRGGTLSTPQTGSENDALYEYLRQSVGNEAEIWLGLNDMAAEGTWVDMTGARIAYKNWETEITAQPDGGKTENCAVLSGAANGKWFDKRCRDQLPYICQFGIV,soluble
25,MGSDKIHHHHHHMQMENSVTTRSRSPDAVRDSAVDRNAYQAKIDPHALKFQIFQEVLTIKREFKCCGGGCCGCLACIGCCQQECIIETPSMGVLGIIRQRCGCMSSNYDIMDGDGNVIFQIDGPCCCMLCGCQDKEFPIKTANNGTVVGAITKKWGGCFREAFTDADTFAVNFPGDLDVKLKGVLIGATFLIDFMEFEQQSQNRNNGV,not soluble
26,MLTNQELTAKVKEISLTYFKQSFDHEAKWNQRLRTTGGRFFPKDLHLDFNPKMAELKDFEGVILHELTHYHLYRSKRGYKHRDADFKRLLSQVGGLRYAPSVIDKKIKYYYSCQNCGQLYPRQRKIDTKKYRCGKCRGKLILKTSGNLEHHHHHH,soluble
